Measurements: the DeepSol protein solubility set

experiment: soluble on expression in E. coli; label from the status in PepcDB or PDB records

Row | Sequence | soluble on expression in E. coli
1 | MKEKYKKSLYIPNELLLEIFADKNLDIQNIIVVSMVCKLWYELSLDNAVWRPLFIKRFSYSPTLANHSIFKEDYQKQLALTQAMKKKCESNHACRNEPGLLEAIREKNIPLIYALFESGHRIIIDSFPDGEQQFTEEMLGFLSECAELPSSLLARIFKRGFCTADMETSEFLALHFIVAEADEKLLQKIFRALGDDLLSVSRYCDLYDNNFFSSLLHFPVERFSLVLRLLYETLGKTKLSTLLVYQNHTYTDWSCIHSASRCGREYFFITLKYLKRQDYPVLLKKGLNDEDIPLFNIAYWGDKESLSHIINILGADATTFLKYKDNKGRNILLPALLSEDHSTVELIEKVMGMEFIDLLLMQDTNGRDILRRVMLLQEPTVLRRINTVLKLLRDYDCLDIAQELYSSDEFTQLISQNLYINQDETIELFNKYTEEKTNNFCSIL | not soluble
2 | MARPIFSQEIDPYSQEVPKDVAISPSSKFDIYVEAPGEAPFEEADSPAMEYDRELAHHYSHKQLDFLEACSEKPSSKCGNEVFKNMLDETVPITDECCRDILKIGKDCHLGLVKLIFATYEYKNKASKGIPKSKQTWNECVFRVGSKIGAPVSFEQ | soluble
3 | MADLDDIKDGKDFHTDKPQTNTLFALKGCGALDWGMQSRLARIFNPKTRKTVMLAFDHGYFQGPTTGLERIDINIAPLFEYADVLMCTRGILRSVVPPAINKPVVLRASGANSILTELSNEAVAVAMDDAVRLNSCAAAAQVYIGSEHEHQSIKNIIQLIDAGLRVGMPIMAVTGVGKDMARDQRYFSLATRIAAEMGAQIIKTYYVDKGFERIAAGCPVPIVIAGGKKLPEREALEMCYQAIDQGASGVDMGRNIFQSEDPVAMIKAVHAVVHHNETAERAYELFLSEKS | not soluble
4 | MGSDKIHHHHHHMNKIAPAEIASMLNDWYLAIKKHEVEESSRLFEEVKPLLDDMEEDQEVLAYFSLLELRHKVLLHEARGQGFQHEEPSHMNATSDMLKYYFFLFEGMYEAYKNNYDIAIGLYKDAEQYLDNIPDPIEKAEFHLKVGKLYYKLGQNIVSLNHTRQAVKTFREETDYKKKLASALITMSGNFTEMSQFEEAEAYLDEAIRITSELEDHFFEAQLLHNFGLLHAQSGKSEEAVSKLEEALQNDEYARSAYYYHSAYLLIRELFKIKKKEQALSYYQDVKEKLTAEPNRICEAKIDILYAIYAEGGHAETFHLCKQHMDDLLSEKEYDSVRELSILAGERYRELELYKEAAHFFYEALQIEELIKRTEVI | not soluble
5 | MKKVIIAGNGPSLKEIDYSRLPNDFDVFRCNQFYFEDKYYLGKKCKAVFYNPSLFFEQYYTLKHLIQNQEYETELIMCSNYNQAHLENENFVKTFYDYFPDAHLGYDFFKQLKDFNAYFKFHEIQFNQRITSGVYMCAVAIALGYKEIYLSGIDFYQNGSSYAFDTKQKNLLKLAPNFKNDNSHYIGHSKNTDIKALEFLEKTYKIKLYCLCPNSLLANFIGLAPNLNSNFIIQEKNNYTKDILIPSSEAYGKFSKNINFKKIKIKENIYYKLIKDLLRLPSDIKHYFKGK | soluble
6 | RGNLGQSQKVLIEFVSANPTGPLHVGHGRGAAFGATLGNVLKAAGYDVTLEYYVNDAGRQMNILAVSVWLRYLELAGEPIVFPANGYKGQYVYEIAQEIWSEQGNQFVHPWISVVENLPADEPEGGDKETYIDAIIARAQSLLGKDGFANFHQHALKTVLDDIKDDLQAFGVRFDSWFSEQSLFEDGSIEKGIQALKDRGHTYEREGALWFRATDFGDEKDRVLVRANGQTTYFASDVAYHWNKYDRGFDRVIDIFGADHHGYVTRIKTAVKALGHDESALDVILVQFAILYRGGDRVQMSTRSGSFVTLRELREEVGNDAARYFYVARKPEQHMDFDLDLAKSESSDNPVYYIQYAHARICSVLRQLKERGLKWDKDMGL | not soluble
7 | MSNSFEILMNQLGMPAEMRQAPALAQANIERVVVHKISKVWEFHFVFSNILPIEIFLELKKGLSEEFSKTGNKAVFEIKARSQEFSNQLLQSYYREAFSEGPCASQGFKSLYQNLQVRAEGNQLFIEGSEAIDKEHFKKNHLPNLAKQLEKFGFP | not soluble
8 | HHHHHHDITFRNIRFRYKPDSPVILDNINLSIKQGEVIGIVGRSGSGKSTLTKLIQRFYIPENGQVLIDGHDLALADPNWLRRQVGVVLQDNVLLNRSIIDNISLANPGMSVEKVIYAAKLAGAHDFISELREGYNTIVGEQGAGLSGGQRQRIAIARALVNNPKILIFDEATSALDYESEHVIMRNMHKICKGRTVIIIAHRLSTVKNADRIIVMEKGKIVEQGKHKELLSEPESLYSYLYQLQSD | soluble
